In patent US6995244 (OHIO STATE UNIVERSITY, dated 2006):
Positions count from the first letter of the chain named. Names and notes keep the numbering of the source.

T1: human prolactin receptor on transfected FDC-P1 cells (human, UniProt P16471 25-622)
T1 sequence (looked up): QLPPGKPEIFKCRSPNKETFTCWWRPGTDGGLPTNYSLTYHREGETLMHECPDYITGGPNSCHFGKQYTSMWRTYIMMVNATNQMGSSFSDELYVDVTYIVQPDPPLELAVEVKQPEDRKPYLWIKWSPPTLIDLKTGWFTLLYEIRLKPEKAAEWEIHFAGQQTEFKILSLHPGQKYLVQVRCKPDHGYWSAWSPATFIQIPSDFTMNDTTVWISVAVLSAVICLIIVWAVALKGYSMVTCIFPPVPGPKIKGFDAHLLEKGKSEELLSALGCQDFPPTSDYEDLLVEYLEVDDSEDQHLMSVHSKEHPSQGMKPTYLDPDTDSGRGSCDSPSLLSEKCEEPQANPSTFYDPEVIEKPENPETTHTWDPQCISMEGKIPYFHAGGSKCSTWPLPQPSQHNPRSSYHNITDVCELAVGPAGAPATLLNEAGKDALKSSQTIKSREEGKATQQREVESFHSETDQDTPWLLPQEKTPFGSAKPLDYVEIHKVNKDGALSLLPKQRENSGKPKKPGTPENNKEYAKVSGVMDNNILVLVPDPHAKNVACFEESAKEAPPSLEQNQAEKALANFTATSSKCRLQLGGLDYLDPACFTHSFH

T2: extracellular domain of the human prolactin receptor (human, UniProt P16471 25-234)
T2 construct: extracellular domain; also called extracellular domain of the human lactogenic receptor; lactogenic receptor
T2 sequence (looked up): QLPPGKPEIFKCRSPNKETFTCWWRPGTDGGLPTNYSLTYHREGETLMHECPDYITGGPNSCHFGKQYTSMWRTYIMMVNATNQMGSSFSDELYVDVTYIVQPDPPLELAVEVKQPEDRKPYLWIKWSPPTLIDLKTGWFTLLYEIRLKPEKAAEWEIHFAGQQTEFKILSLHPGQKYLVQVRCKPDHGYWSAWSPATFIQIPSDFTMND

B1: ΔF50 human prolactin (ligand)
chain: MLPICPGGAARCQVTLRDLFDRAVVLSHYIHNLSSEMFSEFDKRYTHGRGITKAINSCHTSSLATPEDKEQAQQMNQKDFLSLIVSILRSWNEPLYHLVTEVRGMQEAPEAILSKAVEIEEQTKRLLEGMELIVSQVHPETKENEIYPVWSGLPSLQMADEESRLSAYYNLLHCLRRDSHKIDNYLKLLKCRIIHNNNC
B2: L98E human prolactin (ligand)
chain: MLPICPGGAARCQVTLRDLFDRAVVLSHYIHNLSSEMFSEFDKRYTHGRGFITKAINSCHTSSLATPEDKEQAQQMNQKDFLSLIVSILRSWNEPLYHEVTEVRGMQEAPEAILSKAVEIEEQTKRLLEGMELIVSQVHPETKENEIYPVWSGLPSLQMADEESRLSAYYNLLHCLRRDSHKIDNYLKLLKCRIIHNNNC
B3: L95E human prolactin (ligand)
chain: B2 chain with L96E, E99L
B4: L171E human prolactin (ligand)
chain: B2 chain with E99L, L172E
B5: F50E human prolactin (ligand)
chain: B2 chain with F51E, E99L
B6: H173E human prolactin (ligand)
chain: B2 chain with E99L, H174E
B7: L165E human prolactin (ligand)
chain: B2 chain with E99L, L166E
B8: Y169E human prolactin (ligand)
chain: B2 chain with E99L, Y170E
B9: M158C human prolactin (ligand)
chain: B2 chain with E99L, M159C
modifications: Cys 158 disulfide-coupled through a thiol to the dextran polymer of the SPR chip surface
notes: Recombinant, expressed in E. coli
B10: G129C human prolactin (ligand)
chain: B2 chain with E99L, G130C
modifications: Cys 129 disulfide-coupled through a thiol to the dextran polymer of the SPR chip surface
notes: Recombinant, E. coli

Assays:
[1] = target: growth hormone receptor (FDC-P1 somatotrophic assay); experiment: cell-based or functional assay
[2] = target: human prolactin receptor on transfected FDC-P1 cells (human) (UniProt P16471); experiment: cell-based or functional assay
[3] = target: T1, human prolactin receptor on transfected …; experiment: cell-based or functional assay
[4] = target: T2, extracellular domain of the human …; experiment: SPR (BIACORE 3000), prolactin coupled to the chip through Cys 158, receptor ECD 50-800 nM, induced-fit model, site 1 (KD1)
Description: (§1) The extracellular domain of the human lactogenic receptor was flowed across the prolactin-linked chip surface at various concentrations and the binding kinetics followed by the optical bench. Human lactogenic receptor (extracellular domain) concentrations varied between 50 nM and 800 nM. […] A single receptor model was used for G129C human prolactin, where site 2 was blocked by the chemistry employed to couple the protein to the chip surface.
(§2) Rate constants were calculated from the association and dissociation curves, respectively, with concentrations of the extracellular domain of the human lactogenic receptor (50, 80, 100, 200, 500 and 800 nM).

[5] = target: T2, extracellular domain of the human …; experiment: SPR, saturating equilibrium at 100 µM receptor ECD (FIG. 10, lower panel)
Description: Experiments were then performed in studies that measured the maximal binding of lactogenic receptor (the extracellular domain of the prolactin receptor prepared by recombinant DNA technology). The various prolactins were bound with high concentrations (100 μM) of extracellular domain of the human prolactin receptor.

[6] = target: T2, extracellular domain of the human …; experiment: SPR (BIACORE 3000), prolactin coupled to the chip through Cys 158, receptor ECD 50-800 nM, induced-fit model, site 2 (KD2)
Description: as §1, §2

[7] = target: T2, extracellular domain of the human …; experiment: SPR (BIACORE 3000), prolactin coupled to the chip through Cys 158, receptor ECD 50-800 nM, induced-fit model, site 2 (kd2)
Description: as §1, §2

[8] = target: T2, extracellular domain of the human …; experiment: SPR (BIACORE 3000), prolactin coupled to the chip through Cys 158, receptor ECD 50-800 nM, induced-fit model, site 1 (ka1)
Description: as §1, §2

[9] = target: T2, extracellular domain of the human …; experiment: SPR (BIACORE 3000), prolactin coupled to the chip through Cys 158, receptor ECD 50-800 nM, induced-fit model, site 2 (ka2)
Description: as §1, §2

[10] = target: T2, extracellular domain of the human …; experiment: SPR (BIACORE 3000), prolactin coupled to the chip through Cys 158, receptor ECD 50-800 nM, induced-fit model, site 1 (kd1); site 1 (kd1), prolactin coupled through Cys 158
Description: as §1, §2

[11] = target: T2, extracellular domain of the human …; experiment: SPR (BIACORE 3000), prolactin coupled to the chip through residue 129 (site 2 blocked), receptor ECD 50-800 nM, single-site model, site 1 (KD1)
Description: as §1, §2

[12] = target: T2, extracellular domain of the human …; experiment: SPR (BIACORE 3000), prolactin coupled to the chip through residue 129 (site 2 blocked), receptor ECD 50-800 nM, single-site model, site 1 (ka1)
Description: as §1, §2

[13] = target: T2, extracellular domain of the human …; experiment: SPR (BIACORE 3000), prolactin coupled to the chip through residue 129 (site 2 blocked), receptor ECD 50-800 nM, single-site model, site 1 (kd1)
Description: as §1, §2

Molecule	ED50 (nM), FDC-P1 somatotrophic assay [1] [nM]	ED50 (nM), FDC-P1 lactogenic assay (cell proliferation, Alamar blue) [3] [nM]	Relative fold loss of activity, FDC-P1 lactogenic assay [3] [fold]	also measured
L93E human growth hormone (from UniProt P01241 27-217) (ligand)	0.234	–	–	–
L163F human growth hormone (from UniProt P01241 27-217) (ligand)	0.235	–	–	–
wild-type recombinant human growth hormone (from UniProt P01241 27-217) (ligand)	0.0712	–	–	ED50 (nM), FDC-P1 lactogenic assay [2]: 1.76 nM
F44E human growth hormone (from UniProt P01241 27-217) (ligand)	0.576	–	–	–
L163A human growth hormone (from UniProt P01241 27-217) (ligand)	0.13	–	–	–
Y164E human growth hormone (from UniProt P01241 27-217) (ligand)	0.151	–	–	–
Y160E human growth hormone (from UniProt P01241 27-217) (ligand)	0.186	–	–	–
B1	–	0.03	2.7	–
B2	–	63.1	87.7	–
B3	–	5.6	7.8	–
B4	–	5.7	8	–
B5	–	1	5	–
B6	–	1130	1570	–
B7	–	29.5	41	–
B8	–	64.8	90	–
B9	–	–	–	Kd [4]: 109 nM; stoichiometry (receptors bound to each prolactin) [5]: 2 receptors per prolactin; Kd [6]: 153 nM; koff [7]: 0.00039 s⁻¹; kon [8]: 14300 M⁻¹ s⁻¹; kon [9]: 2560 M⁻¹ s⁻¹; koff [10]: 0.00157 s⁻¹
B10	–	–	–	Kd [11]: 60.5 nM; stoichiometry (receptors bound to each prolactin) [5]: ~1 receptors per prolactin; kon [12]: 19600 M⁻¹ s⁻¹; koff [13]: 0.00119 s⁻¹
